Legend:
human serum albumin [1] = biological target: T1, human serum albumin (human, UniProt P02768 25-609); experiment: SPR (MASS-1), trispecific immobilised, HSA injected as last analyte
T1 construct: also called HSA
Experimental: (§1) All possible sequences of antigen injection were tested resulting in six possible sequences.
(§2) To evaluate concomitant binding of each antigen to trispecific molecules, the binding level relative to the theoretical Rmax was calculated for each injection using the respective ligand and analyte molecular masses and the immobilization level of the trispecific molecules. The average of the maximum binding relative to theoretical Rmax for each antigen was obtained by averaging individual maximum binding relative to theoretical Rmax obtained for the two injections where the respective antigen was injected as first analyte (in the absence of other bound antigens). Next, the binding relative to the theoretical Rmax of each analyte injection was compared to its average maximum binding to calculate the fraction binding obtained in the presence of other bound antigens. […] The binding levels relative to the theoretical Rmax and the average of maximum binding (binding levels in the absence of other antigens) of each antigen were calculated.

human serum albumin [2] = biological target: T1, human serum albumin; experiment: SPR (MASS-1), HSA immobilised, trispecific as analyte, pH 5.5
Experimental: (§3) The binding to human serum albumin (HSA) and cynomolgus serum albumin (CSA) was assessed for purified trispecific molecules by running SPR spectroscopy on a MASS-1 device (Sierra Sensors). HSA was directly immobilized on a high capacity amine sensor chip (Sierra Sensors) and trispecific molecules were injected as analyte using a dose response multicycle kinetic assay with concentrations of the analyte ranging from 0.35 to 90 nM diluted either in running buffer at pH5.5 or pH7.5. Obtained sensorgrams were fitted using the 1:1 binding model. Affinity to CSA was assessed in a similar approach using a CSA immobilized sensor chip.

human IL-17A [3] = biological target: T2, human IL-17A (human, UniProt Q16552 24-155); experiment: competitive ELISA, blocking of IL-17A/IL-17RA interaction (summary table)
T2 construct: Recombinant human IL-17A (Peprotech Cat. No. 200-17), disulfide-linked homodimer from E. coli; Biotinylated or RPE-labelled in some assays; also called hIL-17A; IL-17A-RPE (labelled)
Experimental: (§4) Finally, Tetramethylbenzidine solution was added to develop the plate for 5 to 10 minutes and the reaction was stopped with 1 M HCl. The plate was read at 450 nm and 570 nm (reference wavelength).

human IL-17A [4] = biological target: T2, human IL-17A; experiment: SPR (summary table), affinity to human IL-17, capture setup
Experimental: (§5) In this experiment, the biotinylated antigens were captured using the Biotin-CAPture kit from Biacore. After each analyte injection cycle the CAP sensor chip was regenerated and new antigen was captured. Trispecific molecules were injected as analyte using a dose response multicycle kinetic assay with concentrations of the analyte ranging from 0.35 to 90 nM diluted in running buffer. Obtained sensorgrams were fitted using the 1:1 binding model.

human TNFα [5] = biological target: T3, human TNFα (human, UniProt P01375 77-233); experiment: SPR (summary table), affinity to human TNF
T3 construct: Biotinylated in the Biacore assay
Experimental: as §5

human IL-17A [6] = biological target: T2, human IL-17A; experiment: competitive ELISA: IL-17RA coated, biotinylated IL-17A preincubated with trispecific molecule
Experimental: as §4

human serum albumin [7] = biological target: T1, human serum albumin; experiment: SPR (MASS-1), HSA immobilised, trispecific as analyte, pH 7.4
Experimental: as §3

human serum albumin [8] = biological target: T1, human serum albumin; experiment: SPR (summary table), affinity to HSA at pH 5.5
Experimental: as §3

human TNFα [9] = biological target: T3, human TNFα; experiment: cell-based or functional assay
human IL-17A [10] = biological target: T2, human IL-17A; experiment: competitive ELISA: biotinylated human IL-17A preincubated with the trispecific molecule, then binding to coated IL-17RA detected (blocked ligand: IL-17RA) [right panel]
human TNFα [11] = biological target: T3, human TNFα; experiment: cell-based or functional assay; remark: listed apart in the source
human IL-17A [12] = biological target: T2, human IL-17A; experiment: cell-based or functional assay
human TNFα [13] = biological target: T3, human TNFα; experiment: SPR (Biacore T200), biotinylated antigen captured (Biotin-CAPture), trispecific as analyte;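 note: multicycle dose-response kinetics, analyte at 0.35–90 nM in running buffer, CAP chip regenerated with fresh antigen each cycle, sensorgrams fitted to a 1:1 binding model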
Experimental: as §5

human IL-17A [14] = biological target: T2, human IL-17A; experiment: as above
Experimental: as §5

human serum albumin [15] = biological target: T1, human serum albumin; experiment: SPR (MASS-1), trispecific immobilised, antigens injected sequentially
Experimental: as §1, §2

human TNFα [16] = biological target: T3, human TNFα; experiment: as above
Experimental: as §1, §2

human IL-17A [17] = biological target: T2, human IL-17A; experiment: as above
Experimental: as §1, §2

cynomolgus serum albumin [18] = biological target: T4, cynomolgus serum albumin (cynomolgus monkey, UniProt A2V9Z4 25-608); experiment: SPR (MASS-1), CSA immobilised, trispecific as analyte, pH 5.5
T4 construct: also called CSA
Experimental: as §3

cynomolgus serum albumin [19] = biological target: T4, cynomolgus serum albumin; experiment: SPR (MASS-1), CSA immobilised, trispecific as analyte, pH 7.4
Experimental: as §3

cynomolgus monkey IL-17A = biological target: T5, cynomolgus monkey IL-17A (Macaca fascicularis (cynomolgus monkey)); experiment: SPR (Biacore T200), biotinylated antigen captured (Biotin-CAPture), trispecific as analyte;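 note: multicycle dose-response kinetics, analyte at 0.35–90 nM in running buffer, CAP chip regenerated with fresh antigen each cycle, sensorgrams fitted to a 1:1 binding model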
T5 construct: also called cyno IL-17A; cyno IL17A
Experimental: as §5

Row | Binder | relative binding level compared to average maximum binding (human serum albumin [1]) [%] | Kd (human serum albumin [2]) [pM] | koff (human serum albumin [2]) [s⁻¹] | kon (human serum albumin [2]) [M⁻¹ s⁻¹] | rel. IC50 (IC50, secukinumab/IC50, test sample, ng/ml) (human IL-17A [3]) | Kd (human IL-17A [4]) [pM] | Kd (human TNFα [5]) [pM] | rel. IC50 to secukinumab (IC50, secukinumab/IC50, test sample, ng/ml) (human IL-17A [6]) | Kd (human serum albumin [7]) [pM] | koff (human serum albumin [7]) [s⁻¹] | kon (human serum albumin [7]) [M⁻¹ s⁻¹] | Kd (human serum albumin [8]) [pM] | IC50 in L929 assay, cell viability (human TNFα [9]) [pM] | rel. IC50 in L929 assay (IC50, A13/IC50, test sample, nM) (human TNFα [9]) | IC50 (read off the curve) (human IL-17A [10]) [ng/mL] | rel. IC50 to A13 (nM) in HT-29 assay, +HSA (human TNFα [11]) | rel. IC50 to A13 (nM) in HT-29 assay, -HSA (human TNFα [11]) | rel. IC50 to secukinumab (ng/ml) in HT-29 assay, +HSA (human IL-17A [12]) | rel. IC50 to secukinumab (ng/ml) in HT-29 assay, -HSA (human IL-17A [12]) | Kd (human TNFα [13]) [pM] | other results
1 | A6 (trispecific scDb-scFv) (other, Single chain) DIQMTQSPSSLSASVGDRVTITCQASQTINYWLAWYQQKPGKAPKLLIYRASTLASGVPSRFSGSGSGTDFTLTISSLQPEDFATYYCQNYYYSTSRSYGFGGGTKLTVLGGGGGSEVQLVESGGGLVQPGGSLRLSCAASGFSLSSNAMGWVRQAPGKGLEYIGIISVGGFTYYASWAKGRFTISRDNSKNTVYLQMNSLRAEDTATYFCARDRHGGDSSGAFYLWGQGTLVTVSSGGGGSGGGGSGGGGSGGGGSDIQMTQSPSSLSASVGDRVTITCQSSESVYSNNQLSWYQQKPGQPPKLLIYDASDLASGVPSRFSGSGSGTDFTLTISSLQPEDFATYYCAGGFSSSSDTAFGGGTKLTVLGGGGGSEVQLVESGGGLVQPGGSLRLSCAASGFSFSSDYWMCWVRQAPGKGLEWIGCIYAGDVDDTDYASWARGRFTISRDNSKNTVYLQMNSLRAEDTAVYYCARVDGFDITYFDLWGQGTLVTVSSGGGGSGGGGSDIQMTQSPSSLSASVGDRVTINCQASESISSWLAWYQQKPGKRPKLLIYKASTLASGVPSRFSGSGSGTDYTLTISSLQPEDFATYYCQGYYLDSSVDDNVFGGGTKLTVLGGGGGSGGGGSGGGGSGGGGSEVQLVESGGGLVQPGGSLRLSCAASGIDFSTYGISWVRQAPGKGLEWIAYIYPDYGITDYASWVNGRFTISLDNAQNTVYLQMNSLRAEDTAVYYCARSGSYYSRGWGAHYFNLWGQGTLVTVSS | ~70 | 770 | 0.000365 | 475000 | 10 | 414 | 23.7 | 10 | 1250 | 0.000332 | 266000 | 770 | 60 | 0.2 | ~5 | 1 | 0.6 | 26.8 | 30 | 23.7 | koff (human TNFα [13]): 2.66e-06 s⁻¹; kon (human TNFα [13]): 112000 M⁻¹ s⁻¹; Kd (human IL-17A [14]): 414 pM; koff (human IL-17A [14]): 8.96e-05 s⁻¹; kon (human IL-17A [14]): 216000 M⁻¹ s⁻¹; antigen binding relative to average maximum binding (human serum albumin [15]): ≥ 70%; antigen binding relative to average maximum binding (human TNFα [16]): ≥ 70%; antigen binding relative to average maximum binding (human IL-17A [17]): ≥ 70%
2 | A7 (trispecific scDb-scFv) (other, Single chain; also called scDb-scFv A7) DIQMTQSPSSLSASVGDRVTINCQASESISSWLAWYQQKPGKRPKLLIYKASTLASGVPSRFSGSGSGTDYTLTISSLQPEDFATYYCQGYYLDSSVDDNVFGGGTKLTVLGGGGGSEVQLVESGGGLVQPGGSLRLSCAASGFSFSSDYWMCWVRQAPGKGLEWIGCIYAGDVDDTDYASWARGRFTISRDNSKNTVYLQMNSLRAEDTAVYYCARVDGFDITYFDLWGQGTLVTVSSGGGGSGGGGSGGGGSGGGGSDIQMTQSPSSLSASVGDRVTITCQASQTINYWLAWYQQKPGKAPKLLIYRASTLASGVPSRFSGSGSGTDFTLTISSLQPEDFATYYCQNYYYSTSRSYGFGGGTKLTVLGGGGGSEVQLVESGGGLVQPGGSLRLSCAASGIDFSTYGISWVRQAPGKGLEWIAYIYPDYGITDYASWVNGRFTISLDNAQNTVYLQMNSLRAEDTAVYYCARSGSYYSRGWGAHYFNLWGQGTLVTVSSGGGGSGGGGSDIQMTQSPSSLSASVGDRVTITCQSSESVYSNNQLSWYQQKPGQPPKLLIYDASDLASGVPSRFSGSGSGTDFTLTISSLQPEDFATYYCAGGFSSSSDTAFGGGTKLTVLGGGGGSGGGGSGGGGSGGGGSEVQLVESGGGLVQPGGSLRLSCAASGFSLSSNAMGWVRQAPGKGLEYIGIISVGGFTYYASWAKGRFTISRDNSKNTVYLQMNSLRAEDTATYFCARDRHGGDSSGAFYLWGQGTLVTVSS | ~70 | 1320 | 0.000373 | 284000 | 10.6 | 341 | 122 | 10.6 | 1910 | 0.000369 | 193000 | 1320 | 10 | 1 | ~5 | 1 | 4.8 | 64.5 | 52 | 122 | Kd (cynomolgus serum albumin [18]): 463 pM; koff (cynomolgus serum albumin [18]): 0.000147 s⁻¹; kon (cynomolgus serum albumin [18]): 318000 M⁻¹ s⁻¹; Kd (cynomolgus serum albumin [19]): 1310 pM; koff (cynomolgus serum albumin [19]): 0.000215 s⁻¹; kon (cynomolgus serum albumin [19]): 164000 M⁻¹ s⁻¹; Kd (cynomolgus monkey IL-17A): 223 pM; koff (cynomolgus monkey IL-17A): 5.89e-05 s⁻¹; kon (cynomolgus monkey IL-17A): 264000 M⁻¹ s⁻¹; koff (human TNFα [13]): 3.59e-05 s⁻¹; kon (human TNFα [13]): 296000 M⁻¹ s⁻¹; Kd (human IL-17A [14]): 341 pM; koff (human IL-17A [14]): 7.83e-05 s⁻¹; kon (human IL-17A [14]): 229000 M⁻¹ s⁻¹; antigen binding relative to average maximum binding (human serum albumin [15]): ≥ 70%; antigen binding relative to average maximum binding (human TNFα [16]): ≥ 70%; antigen binding relative to average maximum binding (human IL-17A [17]): ≥ 70%

— patent publication US20220127350A1 (NUMAB THERAPEUTICS, published 2022)
